Results: article PMC8112169 (Molecules and Cells, 2021)

B1: full-length Mdm36 (residues 1-579) (natural protein, Saccharomyces cerevisiae, UniProt Q06820 1-579, looked up)
chain: MDENGTVKPGYELKGLNSGNSRSNMDKDPIVSKFHRAGLNDSADEEDTDINGNRNTSWITSMISEEKRKVEGKSMLNDEEDLHLSKATLNKCDALVKILADIIKLEFVIHQSWYIRSLHKSVLIQFEVETSGGNKNSAGDSGDDDDDNHNGNLDDSFYKDLSLKCIKKCEKSSLALESLSRDIDQIRDFIMSNTIEDNRVDRLLQNSMTLLLECWIYSMKRLRRLRMKIAGIFVRSKLLLIDHELVTIWHFLQEQNEHETVNNENELKLAETIKSYRAFIKIFIQQLEDSESGSPSSSLFEECLHVFLDIESMYNSLNLNWLLNENKALQERLLSPSSTSENDHTNNLPVIDETKEIEDISSFVNSIVDASMLTHDLTPINSSDSDNLSNGEIDRLDGRRLSSSTSDMSLMMQRTSLQKQLPSLLTAFNNARRLEQELQNACKVNDNKHSTKDTDSNIRRNEHAMSSSVSSIISQNSTLASPSPPMSSSFISTAPSQSSSRMSTLPLSPSSSLLESQSQTLKNNMSQWLNQSRSGLNGTKLIPTNHIGFHSNVLNTLYGIGGGPVSKSYKSNQPSSQNT

Assays:
[1] = molecular target: B1; assay: ITC
SEC-MALS = molecular target: the molecule itself; assay: SEC-MALS
[2] = molecular target: B1; assay: SEC

| Kd [1] | stoichiometry N [1] | binding result [2] | Binder | stoichiometry N (SEC-MALS) |
| --- | --- | --- | --- | --- |
| 121 nM | 1 Num1CC per Mdm36 (1:1) |  | coiled-coil domain of Num1 (residues 97-294) (domain or fragment, Saccharomyces cerevisiae, UniProt Q00402 97-294, looked up) MNFTLELSENLLVECRKLQSSNEAKNEQIKSLKQIKESLSDKIEELTNQKKSFMKELDSTKDLNWDLESKLTNLSMECRQLKELKKKTEKSWNDEKESLKLLKTDLEILTLTKNGMENDLSSQKLHYDKEISELKERILDLNNENDRLLISVSDLTSEINSLQSNRTERIKIQKQLDDAKASISSLKRKVQKKYYQKQ | 2 |
|  |  | binds | Num1 (97-195), N-terminal half of Num1CC (domain or fragment, Saccharomyces cerevisiae, UniProt Q00402 97-195, looked up) MNFTLELSENLLVECRKLQSSNEAKNEQIKSLKQIKESLSDKIEELTNQKKSFMKELDSTKDLNWDLESKLTNLSMECRQLKELKKKTEKSWNDEKESL |  |
|  |  | binds | Num1 (97-175) (domain or fragment, Saccharomyces cerevisiae, UniProt Q00402 97-175, looked up) MNFTLELSENLLVECRKLQSSNEAKNEQIKSLKQIKESLSDKIEELTNQKKSFMKELDSTKDLNWDLESKLTNLSMECR |  |
|  |  |  | B1 | 2 |
